Assay [1] concerns the target T1, human MICA/B endogenously expressed on RPMI-8226 cells (human, UniProt Q29983 24-383).
T1 construct: whole, on cells
T1 sequence (looked up): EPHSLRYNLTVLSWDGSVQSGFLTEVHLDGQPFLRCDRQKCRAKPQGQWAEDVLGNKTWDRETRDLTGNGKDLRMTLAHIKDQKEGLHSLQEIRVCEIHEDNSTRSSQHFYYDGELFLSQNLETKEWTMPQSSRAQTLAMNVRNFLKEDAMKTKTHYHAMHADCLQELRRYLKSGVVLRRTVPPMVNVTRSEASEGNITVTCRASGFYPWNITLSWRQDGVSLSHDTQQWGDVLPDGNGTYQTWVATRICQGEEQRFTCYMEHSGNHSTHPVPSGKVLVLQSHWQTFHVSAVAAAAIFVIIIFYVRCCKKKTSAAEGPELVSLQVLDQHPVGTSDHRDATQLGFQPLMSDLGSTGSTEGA
The assay is described as follows: flow cytometry, tumor cells with endogenous MICA/B. Here is the method:
Serial dilutions of MICA.36-IgG1-NF-G236A mAb were incubated with CHO cells transduced with human MICA/B common alleles or human tumor cell lines that endogenously express MICA/B. Cells were then washed twice, and cell bound antibodies were detected using a secondary anti-human antibody conjugated with a fluorophore. Flow cytometric analyses were performed using a FACSCantoII or FACS Fortessa X-20 flow cytometer. The geometric mean fluorescence intensity of MICA.36-IgG1-NF-G236A mAb bound to cells was determined using FlowJo analysis software. Dose-response curves were generated and EC50s calculated using Prism software.
MICA.36-IgG1-NF-G236A bound to endogenously expressed MICA/B on a variety of human tumor cell lines (FIG. 8B).
(A flow cytometer gives signals particle by particle.)

In assay [2] the target is T2, human MICB expressed on transduced cells (human, UniProt Q29980 23-382).
T2 chain: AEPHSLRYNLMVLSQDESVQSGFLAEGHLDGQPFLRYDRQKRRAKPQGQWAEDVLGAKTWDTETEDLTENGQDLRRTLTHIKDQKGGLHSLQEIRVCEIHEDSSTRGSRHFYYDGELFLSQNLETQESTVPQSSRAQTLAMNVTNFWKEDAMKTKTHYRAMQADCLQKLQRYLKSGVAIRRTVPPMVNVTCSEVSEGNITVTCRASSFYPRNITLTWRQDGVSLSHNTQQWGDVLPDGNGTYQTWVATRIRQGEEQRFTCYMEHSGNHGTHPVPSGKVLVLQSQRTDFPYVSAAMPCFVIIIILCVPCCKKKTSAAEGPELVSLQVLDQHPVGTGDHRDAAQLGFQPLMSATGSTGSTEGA
The assay can be described thus: cell-based or functional assay.

The target of assay [3] is T3, human MICA/B endogenously expressed on 786-O cells (MICA allele *008) (human, UniProt Q29983 24-331).
T3 chain: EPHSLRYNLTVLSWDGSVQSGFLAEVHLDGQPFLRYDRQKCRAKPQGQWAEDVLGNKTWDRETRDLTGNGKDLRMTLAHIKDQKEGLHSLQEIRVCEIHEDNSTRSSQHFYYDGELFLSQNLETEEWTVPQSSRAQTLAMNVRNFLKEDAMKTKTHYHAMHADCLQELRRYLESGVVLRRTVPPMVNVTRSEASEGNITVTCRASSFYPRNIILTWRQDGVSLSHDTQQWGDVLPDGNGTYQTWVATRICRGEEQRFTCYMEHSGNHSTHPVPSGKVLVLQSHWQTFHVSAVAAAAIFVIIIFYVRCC
The assay is described as follows: cell-based or functional assay.

The target in assay [4] is T4, human MICA/B endogenously expressed on HeLa cells (MICA allele *008) (human, UniProt Q29983 24-331).
T4 chain: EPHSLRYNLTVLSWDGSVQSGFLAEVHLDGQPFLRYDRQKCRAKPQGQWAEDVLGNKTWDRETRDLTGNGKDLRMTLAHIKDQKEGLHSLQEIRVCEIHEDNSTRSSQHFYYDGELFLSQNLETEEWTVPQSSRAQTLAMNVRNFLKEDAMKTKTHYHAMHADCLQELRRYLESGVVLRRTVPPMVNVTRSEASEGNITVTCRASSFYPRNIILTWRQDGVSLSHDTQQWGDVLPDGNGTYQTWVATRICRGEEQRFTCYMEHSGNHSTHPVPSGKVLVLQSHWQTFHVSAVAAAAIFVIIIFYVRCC
The assay is described as follows: cell-based or functional assay.

Assay [5] has as its target T3, human MICA/B endogenously expressed on …. The assay can be described thus: flow cytometry, tumor cells with endogenous MICA/B (column Binding EC50).
For assay [6], the target named is T4, human MICA/B endogenously expressed on …. The description is as above.
In assay [7] the target is T5, recombinant soluble human MICA*009 antigen (human, UniProt Q29983 24-307).
T5 construct: also called huIMICA-his allele *009
T5 chain: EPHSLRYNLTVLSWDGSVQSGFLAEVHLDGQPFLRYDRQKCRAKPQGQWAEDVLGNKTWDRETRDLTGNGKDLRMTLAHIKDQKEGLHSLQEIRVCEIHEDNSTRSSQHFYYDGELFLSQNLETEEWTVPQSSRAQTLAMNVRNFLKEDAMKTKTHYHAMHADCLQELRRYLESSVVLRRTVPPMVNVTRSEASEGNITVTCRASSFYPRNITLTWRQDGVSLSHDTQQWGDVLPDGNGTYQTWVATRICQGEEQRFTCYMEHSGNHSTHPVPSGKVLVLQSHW
The assay is described as follows: SPR (Biacore T200, 37 C), antibody captured on anti-human Fc, antigen 100 and 10 nM. Here is the method: (§1) Anti-MICA/B antibodies were captured to α-human Fc surfaces. MICA allele antigens were injected at high and low nanomolar concentrations (500 nM and 50 nM, except indicated otherwise). The results for antibodies MICA.36 and MICA.38 (MICA.2 with a Ser inserted between residues 95 and 96 in the light chain) are shown in Table 2 below.
A general note: SPR reads the build-up and loss of mass on a sensor chip optically.

For assay [8], the target named is T6, recombinant soluble human MICA*004 antigen (human, UniProt Q29983 24-307).
T6 construct: also called huIMICA-his allele *004
T6 chain: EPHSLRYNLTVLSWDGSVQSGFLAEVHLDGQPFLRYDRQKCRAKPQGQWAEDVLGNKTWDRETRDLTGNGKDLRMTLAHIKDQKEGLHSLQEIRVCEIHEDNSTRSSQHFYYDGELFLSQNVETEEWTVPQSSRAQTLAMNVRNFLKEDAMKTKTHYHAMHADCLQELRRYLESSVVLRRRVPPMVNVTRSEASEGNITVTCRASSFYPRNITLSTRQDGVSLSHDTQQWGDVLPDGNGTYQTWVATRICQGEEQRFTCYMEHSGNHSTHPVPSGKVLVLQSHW
The description is as above. As to the method:
as §1

For assay [9], the target named is T7, recombinant soluble human MICA*008 antigen (human, UniProt Q29983 24-307).
T7 construct: also called huIMICA-his allele *008; recombinant soluble MICA (allele 8)
T7 chain: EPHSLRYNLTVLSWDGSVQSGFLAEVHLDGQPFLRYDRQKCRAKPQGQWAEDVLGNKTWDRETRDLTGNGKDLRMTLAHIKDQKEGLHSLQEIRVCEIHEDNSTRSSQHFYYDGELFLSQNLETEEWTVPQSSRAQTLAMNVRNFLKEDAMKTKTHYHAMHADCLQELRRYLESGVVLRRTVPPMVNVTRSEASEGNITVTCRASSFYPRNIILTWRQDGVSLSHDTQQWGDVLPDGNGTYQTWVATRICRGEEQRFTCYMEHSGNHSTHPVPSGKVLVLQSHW
Described as above. As to the method:
as §1

Assay [10] addresses T8, recombinant soluble human MICA*002 antigen (human, UniProt Q29983 24-307).
T8 construct: also called huIMICA-his allele *002
T8 chain: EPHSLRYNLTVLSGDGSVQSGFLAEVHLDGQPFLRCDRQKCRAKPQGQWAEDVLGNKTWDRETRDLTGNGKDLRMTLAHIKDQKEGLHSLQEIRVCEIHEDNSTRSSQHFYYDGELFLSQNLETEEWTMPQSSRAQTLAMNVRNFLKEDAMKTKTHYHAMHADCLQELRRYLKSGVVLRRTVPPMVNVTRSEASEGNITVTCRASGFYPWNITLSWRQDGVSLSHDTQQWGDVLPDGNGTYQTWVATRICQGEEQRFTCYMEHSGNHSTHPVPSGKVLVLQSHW
The assay can be described thus: SPR (Biacore T200, 37 C), antibody captured on anti-human Fc, antigen 500 and 50 nM. As to the method: as §1

For assay [11], the target named is T5, recombinant soluble human MICA*009 …. The assay is described as above. As to the method:
as §1

Assay [12] concerns the target T6, recombinant soluble human MICA*004 …. The description is as above. As to the method: as §1
In assay [13] the target is T7, recombinant soluble human MICA*008 …. The assay is described as above. Here is the method:
as §1

Assay [14] addresses T5, recombinant soluble human MICA*009 …. The assay is described as follows: SPR (Biacore T200, 37 C), antibody captured on anti-human Fc, range over both antigen concentration sets. As to the method:
as §1

The target in assay [15] is T6, recombinant soluble human MICA*004 …. The description is as above. As to the method:
as §1

The target in assay [16] is T7, recombinant soluble human MICA*008 …. The description is as above. As to the method:
as §1

The EC50 is the concentration that produces a half-maximal response. A word on the koff: it is the rate constant with which the complex falls apart. As usually defined, the kon is a measure of how fast the partners come together. As a reminder, the Kd is the free concentration of one partner at which half of the binding sites on the other are occupied at equilibrium, for simple one-to-one binding.

B1: MICA.36-IgG1-NF-G236A (antibody)
heavy: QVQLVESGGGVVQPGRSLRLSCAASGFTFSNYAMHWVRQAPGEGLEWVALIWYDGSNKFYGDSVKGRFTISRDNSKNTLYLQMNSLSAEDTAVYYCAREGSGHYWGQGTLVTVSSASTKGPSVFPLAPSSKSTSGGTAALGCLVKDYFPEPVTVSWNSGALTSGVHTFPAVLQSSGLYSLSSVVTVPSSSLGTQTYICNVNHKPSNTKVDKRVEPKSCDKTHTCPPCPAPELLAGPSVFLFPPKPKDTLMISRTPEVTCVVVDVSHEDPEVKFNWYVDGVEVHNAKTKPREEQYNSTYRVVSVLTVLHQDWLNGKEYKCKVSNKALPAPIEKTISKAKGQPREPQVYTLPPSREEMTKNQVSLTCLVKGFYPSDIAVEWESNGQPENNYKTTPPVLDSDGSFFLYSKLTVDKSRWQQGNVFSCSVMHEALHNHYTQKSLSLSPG
light: AIQLTQSPSSLSASVGDRVTITCRASQGISSALAWYQQKPGKVPKSLIYDASSLESGVPSRFSGSGSGTDFTLTISSLQPEDFATYYCQQFNSYPITFGQGTRLEIKRTVAAPSVFIFPPSDEQLKSGTASVVCLLNNFYPREAKVQWKVDNALQSGNSQESVTEQDSKDSTYSLSSTLTLSKADYEKHKVYACEVTHQGLSSPVTKSFNRGEC
modifications: non-fucosylated (expressed in FUT8-knock-out CHO cells)
notes: Human IgG1 with G236A (EU numbering); also called MICA.36 NF G236A; MICA.36-NF-G236A
Regarding B1, the EC50 in assay [1] came to 3.9 nM. Further, in [2], the “OT-I CD8+ T cell proliferation (antigen cross-presentation) EC50” value was determined as 1.6 nM and the “antibody dependent cellular phagocytosis (ADCP) EC50” value was 10.7 nM. In addition, in assay [3], the “Fold increase in surface MICA” value amounted to 1.47 fold, the “MICA retention EC50” value came to 0.057 nM and the “Reduction in sMICA EC50” value worked out at 0.14 nM. In assay [4], the “Fold increase in surface MICA” value came to 1.43 fold, the “MICA retention EC50” value is 0.032 nM and the “Reduction in sMICA EC50” value is 0.1 nM. In addition, the EC50 in assay [5] stood at 1.37 nM. In [6], this molecule gave an EC50 of 1.76 nM.

B2: MICA.36 hIgG1 (antibody)
heavy: not shown
light: AIQLTQSPSSLSASVGDRVTITCRASQGISSALAWYQQKPGKVPKSLIYDASSLESGVPSRFSGSGSGTDFTLTISSLQPEDFATYYCQQFNSYPITFGQGTRLEIKRTVAAPSVFIFPPSDEQLKSGTASVVCLLNNFYPREAKVQWKVDNALQSGNSQESVTEQDSKDSTYSLSSTLTLSKADYEKHKVYACEVTHQGLSSPVTKSFNRGEC
notes: Recombinant form of hybridoma 19G6 with wild type human IgG1 (236G), fucosylated; also called MICA.36hIgGl; MICA.36 IgG1
B2: the koff amounted to 0.000642 s⁻¹ in [7]; 0.000637 s⁻¹ in assay [8]; 0.000606 s⁻¹ in [9]; 0.0161 s⁻¹ in assay [10]; 0.000603 s⁻¹ in [11]; 0.000591 s⁻¹ in [12]. For the same molecule, the koff in assay [13] was determined as 0.000565 s⁻¹. Also, the kon in [7] is 54100 M⁻¹ s⁻¹; in assay [8], 46200 M⁻¹ s⁻¹; in [9], 120000 M⁻¹ s⁻¹; in [10] it was 28600 M⁻¹ s⁻¹; in [11], 70100 M⁻¹ s⁻¹; in [12] it was 95200 M⁻¹ s⁻¹. Moreover, the kon in assay [13] was 140000 M⁻¹ s⁻¹. The Kd in assay [10] is above 250 nM; in [14], 8.6 to 11.9 nM; in assay [15], 6.2 to 13.8 nM; in [16], 4 to 5.1 nM.

These data come from patent US20220281980A1 (Bristol-Myers Squibb, published 2022).
